Laboratory results as given in patent publication US20200010567A1 (NEURIMMUNE, published 2020).

Assays:
GP3: H-(GP)3HHHHHH-NH2 = target: T1, GP3: H-(GP)3HHHHHH-NH2; experiment: indirect ELISA, His-tagged peptide coated at 50 ug/ml, antibody titrated [also D00026 FIG. 7J]
T1 peptide: H-GPGPGPHHHHHH-NH2
Text: (§1) In brief, dipeptide repeat proteins were synthesized and purified by Schafer-N (Copenhagen, Denmark): GA₂₀: H-(GA)₂₀HHHHHH-NH₂; GA₁₀: H-(GA)₁₀HHHHHH-NH₂; GA₆: H-(GA)₆HHHHHH-NH₂; GA₅: H-(GA)₅HHHHHH-NH₂; GA₄: H-(GA)₄HHHHHH-NH₂; GA₃: H-(GA)₃HHHHHH-NH₂; GA₂: H-(GA)₂HHHHHH-NH₂; GP₂₀: H-(GP)₂₀HHHHHH-NH₂; GP₁₀: H-(GP)₁₀HHHHHH-NH₂; GP₆: H-(GP)₆HHHHHH-NH₂; GP₅: H-(GP)₅HHHHHH-NH₂; GP₄: H-(GP)₄HHHHHH-NH₂; GP₃: H-(GP)₃HHHHHH-NH₂; GP₂: H-(GP)₂HHHHHH-NH₂. GR₂₀: H-(GR)₂₀HHHHHH-NH₂; GR₁₀: H-(GR)₁₀HHHHHH-NH₂; GR₆: H-(GR)₆HHHHHH-NH₂; GR₅: H-(GR)₅HHHHHH-NH₂; GR₄: H-(GR)₄HHHHHH-NH₂; GR₃: H-(GR)₃HHHHHH-NH₂; GR₂: H-(GR)₂HHHHHH-NH₂; PA₂₀: H-(PA)₂₀HHHHHH-NH₂; PA₁₀: H-(PA)₁₀HHHHHH-NH₂; PA₆: H-(PA)₆HHHHHH-NH₂; PA₅: H-(PA)₅HHHHHH-NH₂; PA₄: H-(PA)₄HHHHHH-NH₂; PA₃: H-(PA)₃HHHHHH-NH₂; PA₂: H-(PA)₂HHHHHH-NH₂; PR₂₀: H-(PR)₂₀HHHHHH-NH₂; PR₁₀: H-(PR)₁₀HHHHHH-NH₂; PR₆: H-(PR)₆HHHHHH-NH₂; PR₅: H-(PR)₅HHHHHH-NH₂; PR₄: H-(PR)₄HHHHHH-NH₂; PR₃: H-(PR)₃HHHHHH-NH₂; PR₂: H-(PR)₂HHHHHH-NH₂. 96-well microplates (Corning Incorporated, Corning, USA) were coated with dipeptide repeat protein peptides at a concentration of 50 μg/ml in coating buffer (15 mM Na₂CO₃, 35 mM NaHCO₃, pH 9.42). Non-specific binding sites were blocked for 1 h at room temperature with PBS/0.1% Tween®-20 containing 2% BSA (Sigma-Aldrich, Buchs, Switzerland). Primary antibodies were diluted to the indicated concentrations and incubated 1 h at room temperature, followed by incubation with a donkey anti-human IgG Fcγ-specific antibody conjugated with HRP (Jackson ImmunoResearch Laboratories, Inc., West Grove, USA). Binding was determined by measurement of HRP activity in a standard colorimetric assay. EC₅₀ values were estimated by non-linear regression using GraphPad Prism software (San Diego, USA).

GP2: H-(GP)2HHHHHH-NH2 = target: T2, GP2: H-(GP)2HHHHHH-NH2; experiment: as above
T2 peptide: H-GPGPHHHHHH-NH2
Text: as §1

GP4: H-(GP)4HHHHHH-NH2 = target: T3, GP4: H-(GP)4HHHHHH-NH2; experiment: as above
T3 peptide: H-GPGPGPGPHHHHHH-NH2
Text: as §1

GA5: H-(GA)5HHHHHH-NH2 = target: T4, GA5: H-(GA)5HHHHHH-NH2; experiment: indirect ELISA, His-tagged peptide coated at 50 ug/ml, antibody titrated [also D00025 FIG. 7I]
T4 peptide: H-GAGAGAGAGAHHHHHH-NH2
Description: (§2) 96-well microplates (Corning Incorporated, Corning, USA) were coated with dipeptide repeat protein peptides at a concentration of 50 μg/ml in coating buffer (15 mM Na₂CO₃, 35 mM NaHCO₃, pH 9.42). Non-specific binding sites were blocked for 1 h at room temperature with PBS/0.1% Tween®-20 containing 2% BSA (Sigma-Aldrich, Buchs, Switzerland). Primary antibodies were diluted to the indicated concentrations and incubated 1 h at room temperature, followed by incubation with a donkey anti-human IgG Fcγ-specific antibody conjugated with HRP (Jackson ImmunoResearch Laboratories, Inc., West Grove, USA). Binding was determined by measurement of HRP activity in a standard colorimetric assay. EC₅₀ values were estimated by non-linear regression using GraphPad Prism software (San Diego, USA).
(§3) High affinity binding was detected for poly-GA DPRs harboring 10 or 20 (GA)-repeats, reflected in an EC₅₀ in the subnanomolar or low nanomolar range (FIGS. 7A, 7C-7I).

GA3: H-(GA)3HHHHHH-NH2 = target: T5, GA3: H-(GA)3HHHHHH-NH2; experiment: as above
T5 peptide: H-GAGAGAHHHHHH-NH2
Description: as §2, §3

GA2: H-(GA)2HHHHHH-NH2 = target: T6, GA2: H-(GA)2HHHHHH-NH2; experiment: as above
T6 peptide: H-GAGAHHHHHH-NH2
Description: as §2, §3

GA4: H-(GA)4HHHHHH-NH2 = target: T7, GA4: H-(GA)4HHHHHH-NH2; experiment: as above
T7 peptide: H-GAGAGAGAHHHHHH-NH2
Description: as §2, §3

PR4: H-(PR)4HHHHHH-NH2 = target: T8, PR4: H-(PR)4HHHHHH-NH2; experiment: indirect ELISA, His-tagged peptide coated at 50 ug/ml, antibody titrated [also D00027 FIG. 7O]
T8 peptide: H-PRPRPRPRHHHHHH-NH2
Description: as §2, §3

PR5: H-(PR)5HHHHHH-NH2 = target: T9, PR5: H-(PR)5HHHHHH-NH2; experiment: as above
T9 peptide: H-PRPRPRPRPRHHHHHH-NH2
Description: as §2, §3

PR2: H-(PR)2HHHHHH-NH2 = target: T10, PR2: H-(PR)2HHHHHH-NH2; experiment: as above
T10 peptide: H-PRPRHHHHHH-NH2
Description: as §2, §3

PR3: H-(PR)3HHHHHH-NH2 = target: T11, PR3: H-(PR)3HHHHHH-NH2; experiment: as above
T11 peptide: H-PRPRPRHHHHHH-NH2
Description: as §2, §3

B1: NI-308.5G2 (antibody, V domains shown)
VH: EVQLVQSGADLRNPGASVTVSCTASGYHFADNAINWLRQAPGQRLEWMGWINIYSGNTKYSQNFQGRVTFTRNTSASTAFMHLRSLRSEDTAVYFCARDPDSSGYYLPYFDYWGQGTLVTVSS
VL: DIQLTQSPDSLTLSLGERATINCKSSQSVFYNSNNKNYLAWYQQKPGQPPKLLMYWASTRESGVTDRFSGSGSGTDFTLTITNLQAEDVAVYYCQQFYSSPLTFGGGTKVEIK
notes: Recombinant complete human IgG1, kappa
B1: no binding (tested: about 4x10^5 pM (last point)) (GP3: H-(GP)3HHHHHH-NH2); no binding (tested: about 4x10^5 pM (last point)) (GP2: H-(GP)2HHHHHH-NH2); no binding (tested: about 4x10^5 pM (last point)) (GP4: H-(GP)4HHHHHH-NH2).

B2: NI-308.45C2 (antibody, V domains shown)
VH: QLQLQESGPGLVKPSQILSLTCAISGDSVFSNSAAWNWIRQSPSRGLEWLGRTYYRSKWDNDYAPSVKSRISINPDTSKNQFSLQLNSVTPEDTAVYYCAREVAYCGGDCYSVSFDYWGQGTLVTVSS
VL: not shown
notes: as for B1
B2: no binding (tested: about 4x10^5 pM (last point)) (GA5: H-(GA)5HHHHHH-NH2); no binding (tested: about 4x10^5 pM (last point)) (GA3: H-(GA)3HHHHHH-NH2); no binding (tested: about 4x10^5 pM (last point)) (GA2: H-(GA)2HHHHHH-NH2). B2: no binding (tested: about 4x10^5 pM (last point)) (GA4: H-(GA)4HHHHHH-NH2).

B3: NI-308.24E11 (antibody, V domains shown)
VH: QVQLQESGPGLVKPSETLSLTCTVSTTSLRSYFWSWIRQPPGKGLEWIGYVYYSGSTIYNPSLKNRVTISIDTSKNQFSLNLRSVTAADTAMYFCARGVPAETDARDFPPYYFDHWGQGTLVTVSS
VL: CDIQLTQSPSSLSASVGNRITFTCQASQDIRYYLNWYQQKPGKAPKLLIYDVSNLDTGVPPRFSGSGSGTNFTFTISSLQPEDIAVYYCQQYEGLPVTFGGGTKVEIK
notes: as for B1
B3: no binding (tested: about 4x10^5 pM (last point)) (PR4: H-(PR)4HHHHHH-NH2); no binding (tested: about 4x10^5 pM (last point)) (PR5: H-(PR)5HHHHHH-NH2); no binding (tested: about 4x10^5 pM (last point)) (PR2: H-(PR)2HHHHHH-NH2). B3: no binding (tested: about 4x10^5 pM (last point)) (PR3: H-(PR)3HHHHHH-NH2).
